Positions count from the first letter of the chain named.
T1: full-length hCDCP1 with N-terminal c-Myc tag (expression vector GS01), on Ba/F3-hCDCP1 cells or … (human, UniProt Q9H5V8 30-836)
T1 construct: also called human CDCP1; hCDCP1 forced expression cells
T1 sequence: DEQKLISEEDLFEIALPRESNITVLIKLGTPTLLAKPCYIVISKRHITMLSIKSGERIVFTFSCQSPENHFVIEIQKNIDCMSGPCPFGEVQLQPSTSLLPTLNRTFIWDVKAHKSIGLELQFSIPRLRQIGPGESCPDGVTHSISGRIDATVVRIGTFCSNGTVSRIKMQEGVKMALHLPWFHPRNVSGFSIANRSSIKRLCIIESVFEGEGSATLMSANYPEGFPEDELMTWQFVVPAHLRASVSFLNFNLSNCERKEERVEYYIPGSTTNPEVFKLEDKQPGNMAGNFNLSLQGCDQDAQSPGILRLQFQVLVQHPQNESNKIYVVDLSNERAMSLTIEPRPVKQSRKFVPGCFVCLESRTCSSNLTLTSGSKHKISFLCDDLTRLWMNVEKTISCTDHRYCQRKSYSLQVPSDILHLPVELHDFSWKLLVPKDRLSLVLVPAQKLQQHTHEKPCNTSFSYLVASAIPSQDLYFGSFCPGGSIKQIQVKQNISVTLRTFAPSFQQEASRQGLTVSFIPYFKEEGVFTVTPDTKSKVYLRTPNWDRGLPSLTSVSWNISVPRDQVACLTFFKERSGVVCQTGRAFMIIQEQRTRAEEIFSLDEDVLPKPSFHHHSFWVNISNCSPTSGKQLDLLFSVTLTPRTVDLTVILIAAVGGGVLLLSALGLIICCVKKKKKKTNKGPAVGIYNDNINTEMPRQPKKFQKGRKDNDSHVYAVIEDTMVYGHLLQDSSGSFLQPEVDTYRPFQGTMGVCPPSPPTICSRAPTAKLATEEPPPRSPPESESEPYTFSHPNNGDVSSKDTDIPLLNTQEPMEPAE

B1: h14A043VH1/VL1 (antibody, human IgG1, kappa)
heavy: not shown
light: EIVLTQSPATLSLSPGERATLSCSASSSVSYLYWYQQKPGQAPRPWIYLTSNLASGVPARFSGSGSGTDFTLTISSLEPEDFAVYYCQQWSSNPFTFGGGTKVEIKRTVAAPSVFIFPPSDEQLKSGTASVVCLLNNFYPREAKVQWKVDNALQSGNSQESVTEQDSKDSTYSLSSTLTLSKADYEKHKVYACEVTHQGLSSPVTKSFNRGEC
notes: humanized antibody, human IgG1/kappa constant regions; also called h14A043VH1/VL1-biotin (biotinylated form)
B2: h14A043VH2/VL3 (antibody, human IgG1, kappa)
heavy: not shown
light: B1 light with T5I
notes: humanized antibody, human IgG1/kappa constant regions
B3: h14A043VH1/VL2 (antibody, human IgG1, kappa, V domains shown)
VH: QVQLVQSGAEVKKPGSSVKVSCKASGFNIKDYYMNWVRQAPGQGLEWIGWIDPENANTIYDPKFQGRVTITADESTSTAYMELSSLRSEDTAVYYCYGSSYRFTYWGQGTLVTVSS
VL: EIVLTQSPATLSLSPGERATLSCSASSSVSYLYWYQQKPGQAPRPWIYLTSNLASGVPARFSGSGSGTDYTLTISSLEPEDFAVYYCQQWSSNPFTFGGGTKVEIKR
notes: humanized antibody, human IgG1/kappa constant regions; also called h14A043VH1/VL2-biotin (biotinylated form)
B4: h14A043VH2/VL2 (antibody, human IgG1, kappa, V domains shown)
VH: B3 VH with V68A
VL: B3 VL
notes: as for B2
B5: h14A043VH1/VL3 (antibody, human IgG1, kappa)
heavy: not shown
light: B1 light with T5I
notes: humanized antibody, human IgG1/kappa constant regions; also called h14A043VH1/VL3-biotin (biotinylated form)
B6: h14A043VH2/VL1 (antibody, human IgG1, kappa)
heavy: not shown
light: B1 light
notes: humanized antibody, human IgG1/kappa constant regions; also called h14A043VH2/VL1-biotin (biotinylated form)
B7: mh14A025HCv24/LCori (antibody, human IgG1, kappa, V domains shown)
VH: EVQLQESGAELVRPGALVKLSCKASGFNIKDYYMHWVKQRPEQGLEWIGWIDPEWGNTIYDPKFQGKASITADTSSNTAYLQLSSLTSEDTAVYYCGGLLYAMDYWGQGTSVTVSS
VL: DIQMTQTTSSLSASLGDRVTISCRASQDISNYLNWYQQKPDGTVKLLIYFTSRLHSGVPSRFSGSGSGTDYSLTISNLEQEDIATYFCQQGNTLPRTFGGGTKLEIRR
notes: mouse-human chimeric antibody, human IgG1/kappa constant regions
B8: mh14A043HCori/LCv1 (antibody, human IgG1, kappa, V domains shown)
VH: B7 VH with H35N, W55N, G97Y, L99S, L100S, A102R, M103F, D104T, S111L
VL: QIVLIQSPALMSASPGEKVTMTCSASSSVSYLYWYQQKPRSSPKPWIYLTSNLASGVPARFSGSGSGTSYSLTISSMEAEDAATYYCQQWSSNPFTFGSGTKLEIKR
notes: as for B7
B9: mh14A043HCv2/LCv1 (antibody, human IgG1, kappa, V domains shown)
VH: B7 VH with H35N, W55N, G56A, G97Y, L99S, L100S, A102R, M103F, D104T, S111L
VL: B8 VL
notes: as for B7
B10: mh14A043HCv1/LCv1 (antibody, human IgG1, kappa, V domains shown)
VH: B7 VH with H35N, W55S, G97Y, L99S, L100S, A102R, M103F, D104T, S111L
VL: B8 VL
notes: as for B7
B11: mh14A043HCv2/LCori (antibody, human IgG1, kappa, V domains shown)
VH: B7 VH with H35N, W55N, G56A, G97Y, L99S, L100S, A102R, M103F, D104T, S111L
VL: B8 VL with L32M
notes: as for B7
B12: mh14A043HCv1/LCori (antibody, human IgG1, kappa, V domains shown)
VH: B7 VH with H35N, W55S, G97Y, L99S, L100S, A102R, M103F, D104T, S111L
VL: B8 VL with L32M
notes: as for B7
B13: h12A041VH1/VL (antibody, human IgG1, kappa, V domains shown)
VH: QVTLRESGPALVKPTQTLTLTCTFSGFSLSTSGMGVSWIRQPPGKALEWLAHIYWDDDKRYNPSLKSRLTISKDTSKNQVVLTMTNMDPVDTATYYCARSGSYYGSSLDSWGQGTTVTVSS
VL: DIVMTQSPLSLPVTPGEPASISCRSSQSIVHSSGNTYLEWYLQKPGQSPQLLIYKVSNRFSGVPDRFSGSGSGTDFTLKISRVEAEDVGVYYCFQGSHVPWTFGGGTKVEIKR
notes: humanized antibody, human IgG1/kappa constant regions; also called h12A041VH1/VL-biotin (biotinylated form)
B14: h12A041VH1/VLA (antibody, human IgG1, kappa, V domains shown)
VH: B13 VH
VL: B13 VL with H31Y
notes: humanized antibody, human IgG1/kappa constant regions; also called h12A041VH1/VLA-biotin (biotinylated form); h12A041VH1NLA-biotin
B15: h12A041VH2A/VLB (antibody, human IgG1, kappa, V domains shown)
VH: B13 VH with S32F, A46G
VL: B13 VL with S28N, S33D
notes: as for B2
B16: h12A041VH2A/VLA (antibody, human IgG1, kappa, V domains shown)
VH: B13 VH with S32F, A46G
VL: B13 VL with H31Y
notes: as for B2
B17: h12A041VH1/VLB (antibody, human IgG1, kappa, V domains shown)
VH: B13 VH
VL: B13 VL with S28N, S33D
notes: humanized antibody, human IgG1/kappa constant regions; also called h12A041VH1/VLB-biotin (biotinylated form)
B18: h12A041VH1A/VLB (antibody, human IgG1, kappa, V domains shown)
VH: B13 VH with S32F
VL: B13 VL with S28N, S33D
notes: as for B2
B19: h12A041VH2/VLB (antibody, human IgG1, kappa, V domains shown)
VH: B13 VH with A46G
VL: B13 VL with S28N, S33D
notes: as for B2
B20: h12A041VH1A/VLA (antibody, human IgG1, kappa, V domains shown)
VH: B13 VH with S32F
VL: B13 VL with H31Y
notes: as for B2
B21: h12A041VH1A/VL (antibody, human IgG1, kappa, V domains shown)
VH: B13 VH with S32F
VL: B13 VL
notes: humanized antibody, human IgG1/kappa constant regions; also called h12A041VH1A/VL-biotin (biotinylated form)
B22: h12A041VH2A/VL (antibody, human IgG1, kappa, V domains shown)
VH: B13 VH with S32F, A46G
VL: B13 VL
notes: as for B2
B23: h12A041VH2/VL (antibody, human IgG1, kappa, V domains shown)
VH: B13 VH with A46G
VL: B13 VL
notes: as for B2
B24: h12A041VH2/VLA (antibody, human IgG1, kappa, V domains shown)
VH: B13 VH with A46G
VL: B13 VL with H31Y
notes: as for B2
B25: mh14A063HCori/LCv1 (antibody, human IgG1, kappa, V domains shown)
VH: EVQLQESGGGLVQPGGSLKLSCAASGFTFSSYTMSWVRQTPEKRLEWVAYISNGGGSTYYPDTVKGRFTISRDNAKNTLYLQMSSLKSEDTAMYYCARYDLGFAYWGQGTLVTVSS
VL: NIVLTQSPASLAVSLGQRATISCRASESVDSYGNSFLHWYQQKPGQPPKLLIFLASNLESGVPARFSGSGSRTDFTLTIDPVEADDAATYYCQQNNEDPWTFGGGTNLEIKR
notes: as for B7
B26: mh14A063HCv2/LCori (antibody, human IgG1, kappa, V domains shown)
VH: B25 VH with G54A
VL: B25 VL with L37M
notes: as for B7
B27: mh14A063HCv1/LCv1 (antibody, human IgG1, kappa, V domains shown)
VH: B25 VH with N53S
VL: B25 VL
notes: as for B7
B28: mh14A063HCv1/LCori (antibody, human IgG1, kappa, V domains shown)
VH: B25 VH with N53S
VL: B25 VL with L37M
notes: as for B7
B29: mh14A063HCv2/LCv1 (antibody, human IgG1, kappa, V domains shown)
VH: B25 VH with G54A
VL: B25 VL
notes: as for B7
B30: h14A063VH2/VL1 (antibody, human IgG1, kappa)
heavy: not shown
light: EIVLTQSPATLSLSPGERATLSCRASESVDSYGNSFMHWYQQKPGQAPRLLIFLASNLESGVPARFSGSGSRTDFTLTISSLEPEDFAVYYCQQNNEDPWTFGGGTKVEIKRTVAAPSVFIFPPSDEQLKSGTASVVCLLNNFYPREAKVQWKVDNALQSGNSQESVTEQDSKDSTYSLSSTLTLSKADYEKHKVYACEVTHQGLSSPVTKSFNRGEC
notes: as for B2
B31: h14A063VH2/VL2 (antibody, human IgG1, kappa)
heavy: not shown
light: B30 light with R72G
notes: as for B2

Each binder was assayed against T1, full-length hCDCP1 with N-terminal … (assay: flow cytometry on Ba/F3-hCDCP1 cells).

Row | Binder | binding result
1 | B1 | binds
2 | B2 | binds
3 | B3 | binds
4 | B4 | binds
5 | B5 | binds
6 | B6 | binds
7 | B7 | binds
8 | B8 | binds
9 | B9 | binds
10 | B10 | binds
11 | B11 | binds
12 | B12 | binds
13 | B13 | binds
14 | B14 | binds
15 | B15 | binds
16 | B16 | binds

Row | Binder | binding result
17 | B17 | binds
18 | B18 | binds
19 | B19 | binds
20 | B20 | binds
21 | B21 | binds
22 | B22 | binds
23 | B23 | binds
24 | B24 | binds
25 | B25 | binds
26 | B26 | binds
27 | B27 | binds
28 | B28 | binds
29 | B29 | binds
30 | B30 | binds
31 | B31 | binds
